Assay in all cases: two-hybrid library CCNG1;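 further: natural log of median RNA to DNA barcode read ratio; higher means stronger binding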
For assay [1], the target named is T1, 4H1393-bA.
T1 chain: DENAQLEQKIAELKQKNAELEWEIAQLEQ

In assay [2] the target is T2, 4H3817-bA.
T2 chain: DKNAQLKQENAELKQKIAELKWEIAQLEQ

Assay [3] addresses T3, 4H1449-bA.
T3 chain: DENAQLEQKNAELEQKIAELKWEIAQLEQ

In assay [4] the target is T4, 4H3974-bA.
T4 chain: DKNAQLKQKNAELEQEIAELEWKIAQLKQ

Assay [5] addresses T5, 4H906-bA.
T5 chain: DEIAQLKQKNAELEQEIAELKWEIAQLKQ

For assay [6], the target named is T6, 4H1985-bA.
T6 chain: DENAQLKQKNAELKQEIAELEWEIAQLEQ

For assay [7], the target named is T7, 4H570-bA.
T7 chain: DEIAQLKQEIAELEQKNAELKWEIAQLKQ

For assay [8], the target named is T8, 4H3638-bA.
T8 chain: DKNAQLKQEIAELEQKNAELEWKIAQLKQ

For assay [9], the target named is T9, 4H1710-bA.
T9 chain: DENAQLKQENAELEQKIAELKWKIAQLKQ

The target in assay [10] is T10, 4H1629-bA.
T10 chain: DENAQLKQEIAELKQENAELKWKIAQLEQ

Assay [11] deals with T11, 4H1359-bA.
T11 chain: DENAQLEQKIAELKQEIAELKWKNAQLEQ

In assay [12] the target is T12, 4H584-bA.
T12 chain: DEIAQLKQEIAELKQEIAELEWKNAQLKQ

Assay [13] addresses T13, 4H850-bA.
T13 chain: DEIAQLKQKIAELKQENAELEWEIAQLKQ

For assay [14], the target named is T14, 4H1804-bA.
T14 chain: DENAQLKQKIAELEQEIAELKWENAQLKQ

Assay [15] has as its target T15, 4H3414-bA.
T15 chain: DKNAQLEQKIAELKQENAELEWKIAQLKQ

Assay [16] has as its target T16, 4H3631-bA.
T16 chain: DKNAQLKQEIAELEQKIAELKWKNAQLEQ

Assay [17] concerns the target T17, 4H3129-bA.
T17 chain: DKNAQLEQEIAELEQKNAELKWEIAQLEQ

The target of assay [18] is T18, 4H619-bA.
T18 chain: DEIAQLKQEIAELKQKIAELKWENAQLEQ

For assay [19], the target named is T19, 4H3172-bA.
T19 chain: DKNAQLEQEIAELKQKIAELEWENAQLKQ

The target of assay [20] is T20, 4H2134-bH.
T20 chain: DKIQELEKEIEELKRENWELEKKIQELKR

The target in assay [21] is T21, 4H2915-bH.
T21 chain: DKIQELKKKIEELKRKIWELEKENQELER

Assay [22] addresses T22, 4H40-bH.
T22 chain: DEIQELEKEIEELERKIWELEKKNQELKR

Assay [23] addresses T23, 4H2143-bH.
T23 chain: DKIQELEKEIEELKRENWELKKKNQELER

In assay [24] the target is T24, 4H3277-bH.
T24 chain: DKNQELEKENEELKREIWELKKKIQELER

For assay [25], the target named is T25, 4H348-bH.
T25 chain: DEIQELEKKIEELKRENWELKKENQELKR

Assay [26] has as its target T26, 4H2473-bH.
T26 chain: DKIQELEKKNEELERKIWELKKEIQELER

Assay [27] has as its target T27, 4H2717-bH.
T27 chain: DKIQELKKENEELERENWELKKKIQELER

Assay [28] addresses T28, 4H2223-bH.
T28 chain: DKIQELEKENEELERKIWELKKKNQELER

The target of assay [29] is T29, 4H3057-bH.
T29 chain: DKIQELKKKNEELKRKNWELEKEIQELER

For assay [30], the target named is T30, 4H182-bH.
T30 chain: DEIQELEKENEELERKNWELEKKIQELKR

Assay [31] has as its target T31, 4H2503-bH.
T31 chain: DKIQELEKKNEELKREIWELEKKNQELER

Assay [32] deals with T32, 4H2588-bH.
T32 chain: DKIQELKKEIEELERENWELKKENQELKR

Assay [33] addresses T33, 4H477-bH.
T33 chain: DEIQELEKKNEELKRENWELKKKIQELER

Assay [34] deals with T34, 4H2438-bH.
T34 chain: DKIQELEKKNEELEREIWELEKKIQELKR

The target in assay [35] is T35, 4H492-bH.
T35 chain: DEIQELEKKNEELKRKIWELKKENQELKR

Assay [36] addresses T36, 4H2839-bH.
T36 chain: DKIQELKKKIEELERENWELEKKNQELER

The target in assay [37] is T37, 4H319-bH.
T37 chain: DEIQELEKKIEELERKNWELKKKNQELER

Assay [38] concerns the target T38, 4H2692-bH.
T38 chain: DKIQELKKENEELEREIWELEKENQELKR

The target in assay [39] is T39, 4H741-bH.
T39 chain: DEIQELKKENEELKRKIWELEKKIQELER

Assay [40] concerns the target T40, 4H968-bN.
T40 chain: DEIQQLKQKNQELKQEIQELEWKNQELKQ

In assay [41] the target is T41, 4H457-bN.
T41 chain: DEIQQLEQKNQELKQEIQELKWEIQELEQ

In assay [42] the target is T42, 4H918-bN.
T42 chain: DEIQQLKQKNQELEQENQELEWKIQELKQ

Assay [43] addresses T43, 4H855-bN.
T43 chain: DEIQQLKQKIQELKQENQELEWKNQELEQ

Assay [44] deals with T44, 4H2586-bN.
T44 chain: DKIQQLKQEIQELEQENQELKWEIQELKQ

In assay [45] the target is T45, 4H797-bN.
T45 chain: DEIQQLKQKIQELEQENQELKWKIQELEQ

In assay [46] the target is T46, 4H575-bN.
T46 chain: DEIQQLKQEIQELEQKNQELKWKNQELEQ

The target in assay [47] is T47, 4H780-bN.
T47 chain: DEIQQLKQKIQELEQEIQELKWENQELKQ

In assay [48] the target is T48, 4H170-bN.
T48 chain: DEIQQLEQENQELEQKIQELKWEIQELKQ

Assay [49] has as its target T49, 4H3112-bN.
T49 chain: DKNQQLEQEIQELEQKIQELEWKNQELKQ

Assay [50] addresses T50, 4H1158-bN.
T50 chain: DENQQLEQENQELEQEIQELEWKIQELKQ

The target in assay [51] is T51, 4H3010-bN.
T51 chain: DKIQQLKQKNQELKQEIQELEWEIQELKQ

In assay [52] the target is T52, 4H2627-bN.
T52 chain: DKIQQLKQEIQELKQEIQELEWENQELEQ

The target of assay [53] is T53, 4H118-bN.
T53 chain: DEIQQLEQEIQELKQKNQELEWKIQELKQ

Assay [54] has as its target T54, 4H346-bN.
T54 chain: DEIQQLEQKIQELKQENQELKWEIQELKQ

In assay [55] the target is T55, 4H3427-bN.
T55 chain: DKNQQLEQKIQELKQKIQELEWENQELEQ

In assay [56] the target is T56, 4H2702-bN.
T56 chain: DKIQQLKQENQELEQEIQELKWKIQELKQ

Assay [57] has as its target T57, 4H683-bN.
T57 chain: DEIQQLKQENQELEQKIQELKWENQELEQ

For assay [58], the target named is T58, 4H4073-bN.
T58 chain: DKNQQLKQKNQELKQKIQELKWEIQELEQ

The target in assay [59] is T59, 4H1831-bN.
T59 chain: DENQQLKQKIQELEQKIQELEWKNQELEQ

Assay [60] addresses T60, 4H112-bN.
T60 chain: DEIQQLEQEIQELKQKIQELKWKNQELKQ

The target of assay [61] is T61, 4H2673-bN.
T61 chain: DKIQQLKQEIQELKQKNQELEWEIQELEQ

The target of assay [62] is T62, 4H953-bN.
T62 chain: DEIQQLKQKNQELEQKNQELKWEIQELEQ

The target in assay [63] is T63, 4H754-bN.
T63 chain: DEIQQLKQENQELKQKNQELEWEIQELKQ

The target in assay [64] is T64, 4H3926-bN.
T64 chain: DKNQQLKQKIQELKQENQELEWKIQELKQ

The values below come from PMC10397247.

B1: 4H1359-bA (peptide)
chain: DENAQLEQKIAELKQEIAELKWKNAQLEQ
Regarding B1, the interaction score in assay [1] was -0.644; in assay [2], -0.524; in [3], -0.804; in assay [4] it was -0.0513; in assay [5] it was -0.601; in [6], 0.768. Besides, the interaction score in [7] is -0.609; in assay [8], -0.492; in assay [9], -0.54; in [10] it was -0.732; in assay [11], 0.162; in assay [12], -0.341. For the same molecule, the interaction score was -0.751 in [13]; -0.948 in assay [14]; -0.665 in [15]; 1.41 in [16]; -0.77 in [17]; -0.844 in assay [18]. This molecule had an interaction score in assay [19] of -0.287.

B2: 4H182-bH (peptide)
chain: DEIQELEKENEELERKNWELEKKIQELKR
As to B2, the interaction score is 0.462 in assay [20]; 0.801 in assay [21]; -0.335 in assay [22]; 0.14 in assay [23]; -0.523 in assay [24]; -0.493 in [25]. In addition, the interaction score in assay [26] was 0.11; in assay [27], -0.508; in [28], 0.341; in assay [29], 0.511; in [30], 0.517; in assay [31] it was 0.0255. Further, the interaction score is -0.809 in assay [32]; -0.331 in assay [33]; -0.311 in [34]; -0.775 in assay [35]; -0.281 in assay [36]; 0.27 in [37]. Moreover, the interaction score in assay [38] was 1.16; in [39], -0.207.

B3: 4H112-bN (peptide)
chain: DEIQQLEQEIQELKQKIQELKWKNQELKQ
For B3, the interaction score is 0.452 in assay [40]; 0.723 in assay [41]; -0.456 in assay [42]; -0.582 in [43]; -1.21 in assay [44]; -1.01 in assay [45]. Further, the interaction score is -0.471 in [46]; 0.755 in assay [47]; -0.245 in assay [48]; 1.44 in assay [49]; 0.877 in assay [50]; 1.25 in assay [51]. For the same molecule, the interaction score is 1.22 in [52]; -0.511 in assay [53]; -0.486 in assay [54]; 1.06 in assay [55]; 0.834 in [56]; -0.968 in assay [57]. For the same molecule, the interaction score in assay [58] is 1.25; in assay [59] it was 0.348; in [60], 1.46; in assay [61], 0.592; in assay [62], -0.805; in assay [63] it was -0.189. The interaction score in assay [64] is -1.67.
